According to the Human Domainome abundance scans (Beltran et al. 2025):
± gives the uncertainty stated by the source.

B1: Protein piccolo, residues 1058 to 1114; numbered along this chain, Q9Y6V0 (parent)
chain: TCPLCKTELNIGSKDPPNFNTCTECKNQVCNLCGFNPTPHLTEIQEWLCLNCQTQRA
B2: CD2-associated protein, residues 271 to 331; numbered along this chain, Q9Y5K6 (parent)
chain: KEYCRTLFAYEGTNEDELTFKEGEIIHLISKETGEAGWWRGELNGKEGVFPDNFAVQINEL

Variants of: B1
Experiment: abundance fitness (aPCA) (normalised: wild type 0, dead -1); higher = more abundant; growth selection in yeast, the domain comes from the species named
Conditions: Homo sapiens

Variant | abundance fitness
L50C | -0.04 ± 0.13
L50V | 0.102 ± 0.099
L50P | 0.329 ± 0.17
L50Y | -0.239 ± 0.25
N27Y | -0.452 ± 0.18
N27L | 0.157 ± 0.088
N27H | -0.024 ± 0.19
F35P | 0.285 ± 0.14
F35C | 0.019 ± 0.13
F35Y | 0.022 ± 0.15
L41I | 0.188 ± 0.21
L41W | -0.133 ± 0.11
L41E | -0.015 ± 0.15
K26T | 0.195 ± 0.14
K26N | 0.09 ± 0.19
K26Q | 0.04 ± 0.14
K26L | 0.103 ± 0.095
C5R | -0.906 ± 0.09
C5A | -0.844 ± 0.082
T21C | 0.032 ± 0.13
T21E | 0.036 ± 0.12
S13P | -0.062 ± 0.11
G34P | -0.63 ± 0.17
G34F | -0.035 ± 0.12
G34H | -0.37 ± 0.24
L32T | -0.017 ± 0.15

Variant | abundance fitness
L32C | -0.017 ± 0.13
L32P | -0.134 ± 0.14
C52R | -0.701 ± 0.13
C52E | -0.448 ± 0.16
C52G | -0.727 ± 0.12
V29L | -0.284 ± 0.072
V29P | -0.545 ± 0.085
N36H | 0.313 ± 0.24
L48N | -0.063 ± 0.17
L48V | -0.165 ± 0.098
F19I | 0.178 ± 0.22
F19L | -0.151 ± 0.098
F19T | -0.044 ± 0.13
F19V | -0.211 ± 0.12
F19H | -0.022 ± 0.35
Q28F | -0.185 ± 0.12
Q28R | 0.004 ± 0.086
Q28M | 0.186 ± 0.14
Q28N | -0.125 ± 0.18
N31C | 0.093 ± 0.11
N31Y | 0.011 ± 0.16
N31Q | 0.014 ± 0.12
K6S | 0.059 ± 0.076
K6H | -0.142 ± 0.15
K6I | -0.087 ± 0.13
K6G | -0.507 ± 0.074

Variant | abundance fitness
K6Q | -0.02 ± 0.11
C33P | -0.795 ± 0.14
C33S | -0.646 ± 0.097
C33L | -0.819 ± 0.089
C33R | -0.729 ± 0.1
C33H | 0.076 ± 0.13
N20I | -0.115 ± 0.14
N20T | 0.067 ± 0.12
N20C | -0.091 ± 0.11
C30T | -0.597 ± 0.13
C30A | -0.562 ± 0.11
C30I | -0.887 ± 0.2
C30M | -0.734 ± 0.14
C30H | -0.17 ± 0.24
H40Y | -0.13 ± 0.15
H40I | -0.018 ± 0.18
H40M | 0.004 ± 0.13
I11S | -0.026 ± 0.092
I11N | 0.037 ± 0.18
T42A | 0.055 ± 0.11
T42H | 0.123 ± 0.22
T42W | -0.166 ± 0.13
W47Y | -0.493 ± 0.25
W47T | -0.195 ± 0.17
W47N | -0.354 ± 0.29
C49F | -0.793 ± 0.24

Variant | abundance fitness
C49I | -1.05 ± 0.28
C49R | -0.782 ± 0.13
T54L | -0.531 ± 0.1
T54Q | 0.214 ± 0.13
T54P | 0.156 ± 0.12
N51K | -0.063 ± 0.22
N51H | -0.146 ± 0.25
N51M | -0.557 ± 0.2
E43T | -0.091 ± 0.18
E43W | -0.09 ± 0.33
N10H | -0.608 ± 0.16
N10L | -0.204 ± 0.08
N10D | -0.245 ± 0.16
N10E | -0.022 ± 0.11
L9H | -0.231 ± 0.15
L9K | 0.026 ± 0.12
P3I | -0.073 ± 0.18
P3E | -0.32 ± 0.2
P3G | -0.137 ± 0.11
P3K | -0.248 ± 0.17
P3F | -0.216 ± 0.17
P16H | 0.009 ± 0.21
P16W | -0.541 ± 0.13
P16F | 0.024 ± 0.13
T38I | -0.143 ± 0.16
C22F | -0.958 ± 0.18

Variant | abundance fitness
C22W | -1.03 ± 0.21
C22T | -0.736 ± 0.15
C22I | -1.04 ± 0.2
N18R | -0.079 ± 0.1
N18I | -0.5 ± 0.23
Q45I | -0.047 ± 0.19
Q45W | 0.233 ± 0.17
T7I | -0.31 ± 0.11
T1E | -0.142 ± 0.46
T1L | -0.078 ± 0.27
T1K | -0.424 ± 0.49
L4I | -0.048 ± 0.19
L4G | 0.067 ± 0.084
L4M | 0.075 ± 0.1
L4W | -0.576 ± 0.13
K14D | 0.003 ± 0.14
K14F | -0.36 ± 0.13
K14P | -0.116 ± 0.12
K14M | -0.128 ± 0.18
K14L | -0.644 ± 0.12
K14N | -0.016 ± 0.26
K14E | -0.226 ± 0.15
C2N | -0.156 ± 0.18
C2V | -1.11 ± 0.16
C2I | -1.23 ± 0.28
C2T | -0.705 ± 0.16

Variant | abundance fitness
G12L | -0.039 ± 0.082
G12V | -0.405 ± 0.084
G12K | -0.216 ± 0.16
G12D | 0.357 ± 0.17
D15G | -0.124 ± 0.096
D15F | 0.003 ± 0.15
D15M | -0.053 ± 0.13
Q53F | -0.275 ± 0.26
Q53R | 0.099 ± 0.1
P37S | 0.016 ± 0.1
P37W | -0.012 ± 0.11
P37V | 0.14 ± 0.1
E46Q | 0.007 ± 0.17
E46T | -0.083 ± 0.19
E46G | -0.042 ± 0.12
C25I | -0.669 ± 0.14
C25A | -0.784 ± 0.1
C25R | -0.79 ± 0.079
C25M | -0.742 ± 0.14
C25V | -0.636 ± 0.084
I44R | -0.138 ± 0.14
I44K | 0.247 ± 0.46
I44D | -0.38 ± 0.39
I44S | 0.045 ± 0.13
T23M | 0.062 ± 0.17

Variants of: B2
Experiment: as above
Conditions: Homo sapiens

Variant | abundance fitness
E2H | 0.049 ± 0.16
E2N | 0.002 ± 0.12
E2W | -0.525 ± 0.14
E2M | 0.073 ± 0.15
E2P | -0.306 ± 0.13
E2D | 0.039 ± 0.12
E2F | -0.351 ± 0.18
E2V | -0.222 ± 0.064
E2S | -0.128 ± 0.067
E2A | -0.022 ± 0.068
E2L | -0.136 ± 0.074
E2G | -0.078 ± 0.057
